Target: T1, recombinant BoNT/A light chain (recombinant N-terminal domain of BoNT/A, amino acids 1-425) (Clostridium botulinum type A, …, UniProt P0DPI0)
T1 construct: source: E. coli, purified following published protocols
Assay: kinetic exclusion assay (KinExA)
Details: both partners purified

T1 sequence (P0DPI0 1-425): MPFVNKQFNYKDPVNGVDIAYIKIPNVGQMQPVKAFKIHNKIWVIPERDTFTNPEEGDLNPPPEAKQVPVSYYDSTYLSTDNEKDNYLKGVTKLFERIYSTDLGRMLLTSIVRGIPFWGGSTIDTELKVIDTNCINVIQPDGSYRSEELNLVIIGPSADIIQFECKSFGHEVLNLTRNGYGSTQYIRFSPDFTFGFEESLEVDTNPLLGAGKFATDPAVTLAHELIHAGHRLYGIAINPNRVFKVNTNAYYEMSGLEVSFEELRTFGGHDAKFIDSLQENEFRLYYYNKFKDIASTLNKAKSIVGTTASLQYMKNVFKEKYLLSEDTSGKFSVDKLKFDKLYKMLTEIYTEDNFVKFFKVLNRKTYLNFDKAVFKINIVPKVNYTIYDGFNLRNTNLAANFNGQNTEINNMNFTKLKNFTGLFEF

B1: 4LCA antibody (antibody, V domains shown)
VH: QLQLQESGPGLVKPSETLSLTCTVSGGSISSSSYFWGWIRQPPGKGLEWIGYIHYSGNTYYNPSLTSRVTMSVDKSKNQFSLKLTSVTAADTALYSCATFLGRGAPFDPWGQGTLVTVSS
VL: QPPSVSVAPGQTARITCGGTNIGSKSVHWYQRQPGQAPVLVIYYDTDRPSGIPERFSGSNSENTATLTISRVEAGDEADYYCQVWGSGSDHPGVFGGGTKLTVL
notes: also called 4LCA mAb; 4LCA human monoclonal antibody
- Kd: 0.031 nM
- koff: 7.1e-05 s⁻¹
- kon: 2.3e+06 M⁻¹ s⁻¹

Reference: paper PMC2515629 (PLoS ONE, 2008)
